Source: US20130011378A1, “Stable formulations of a hyaluronan-degrading enzyme” (priority 2011, published 2013)
Like-named read-outs stand apart in the source and are kept apart here.

How the values were obtained:
[1] = RP-HPLC: insulin apparent solubility / percent recovery
Procedure: Apparent solubility was measured as the percent insulin recovery as compared to the initial formulations/conditions.
Samples were prepared by withdrawing 100 μL from each vial at every time point and centrifuging prior to loading. Samples were stored in an autosampler at 4° C. prior to use, and were considered stable for 3 days after preparation. All samples were tested in duplicate.
For insulin, 20 μL was injected for each HPLC run.
To determine the apparent solubility, the peak area of insulin/insulin analog main peak and desamido peak were integrated and combined together to calculate the percentage relative to the standards. […] The data were processed using Design-Expert® 7.0 (StatEase) and the “historical data” feature. Insulin percent purity was expressed as the percent of main insulin versus all insulin species.

[2] = reported; cited from earlier work
[3] = biological target: T1, rHuPH20 (Homo sapiens, UniProt P38567); experiment: Determination of hyaluronidase activity of rHuPH20, turbidimetric assay (Example 2, variant not specified); assay type: biochemical; settings: for Effect on rHuPH20 enzymatic activity: stabilizer screening in rHuPH20/insulin formulation, semi-quantitative in comparison with NaCl, samples incubated at 30° C. for about one week
T1 construct: made in house; host or cells: CHO cells (DG44 CHO, HZ24 plasmid, clone 2B2)
T1 sequence (P38567 36-482): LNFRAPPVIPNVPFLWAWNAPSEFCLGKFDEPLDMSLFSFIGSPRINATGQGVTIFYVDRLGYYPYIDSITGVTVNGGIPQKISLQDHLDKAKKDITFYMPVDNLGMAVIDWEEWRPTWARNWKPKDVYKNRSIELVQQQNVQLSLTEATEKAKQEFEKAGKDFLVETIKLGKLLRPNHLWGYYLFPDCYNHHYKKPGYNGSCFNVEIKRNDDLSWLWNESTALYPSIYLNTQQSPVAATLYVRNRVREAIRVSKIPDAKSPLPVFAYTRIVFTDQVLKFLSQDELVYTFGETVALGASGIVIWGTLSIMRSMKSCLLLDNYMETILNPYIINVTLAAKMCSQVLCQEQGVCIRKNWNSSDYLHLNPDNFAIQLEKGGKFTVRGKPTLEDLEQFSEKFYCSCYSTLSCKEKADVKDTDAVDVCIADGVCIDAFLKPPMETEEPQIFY

[4] = test system: Aspergillus niger, Pseudomonas aeruginosa, E. coli, Staphylococcus aureus and Candida albicans; experiment: Antimicrobial (preservative) effectiveness test, USP / EPA / EPB criteria; assay type: cell-based
Text: One of skill in the art is familiar with the antimicrobial preservative effectiveness test and standards to be meet under the USP and EPA or EPB in order to meet minimum requirements. […] The preservative properties of the composition are deemed adequate if, under the conditions of the test, there is a significant fall or no increase, as specified in Table 6, below, in the number of microorganisms in the inoculated composition after the times and at the temperatures prescribed. The criteria for evaluation are given in terms of the log reduction in the number of viable microorganism as compared to the initial sample or the previous timepoint.
The number of viable microorganisms (cfu) in each sample is determined by plate count or membrane filtration. Finally, the cfu for each sample is compared to either the inoculum or the previous sample and log reduction is determined.
The tests were performed according to the guidance of EP and USP by a contract analytical laboratory (Quadrants Scientific, Inc., San Diego, Calif.). […] Raw data (CFU/mL) was converted to a log 10 unit reduction from the measured inoculum. […]
The tests were performed according to the guidance of EP and USP by a contract analytical laboratory (Quadrants Scientific, Inc., San Diego, Calif. and Lancaster Laboratories, Lancaster, Pa.). […] Raw data (CFU/mL) was converted to a log 10 unit reduction from the measured inoculum. […]

[5] = Lysyl lysine as buffer: titration curve and effect of temperature on pH; assay type: physicochemical; settings: rHuPH20/insulin glulisine formulations, 30-105 mM lysyl lysine
[6] = biological target: T1, rHuPH20; experiment: RP-HPLC: rHuPH20 oxidation peaks (ox-1, ox-2); assay type: physicochemical; settings: 40 mM methionine, rHuPH20/insulin formulation, 30° C., 5 weeks
Text: The stability of hyaluronan degrading enzymes in a composition, such as in the co-formulations provided herein, also can be assessed using other methods and assays known in the art. […] Percent recovery is the relative percentage of the hyaluronidase in the co-formulation over time and at various storage conditions, as compared to a reference sample. […] An increase in particle size and a decrease in the melting temperature indicates denaturation and subsequent aggregation of the hyaluronidase. […] Other methods known to one of skill in the art that can be used to determine the stability of the hyaluronidase in the co-formulations provided herein, include polyacrylamide gel electrophoresis (PAGE), immunoblotting, nuclear magnetic resonance (NMR) spectroscopy, mass spectrometry, circular dichroism (CD) and dye-based fluorescence assays.
The formulations varied in the surfactant and surfactant concentration and the buffer (either histidine or phosphate).
Methionine oxidation can be prevented by addition of free methionine as a scavenger to react with potential oxidative compounds.

[7] = biological target: T1, rHuPH20; experiment: Differential scanning calorimetry: Tm of rHuPH20; assay type: physicochemical; settings: in the presence of […] m-cresol
[8] = stabilizer screening in rHuPH20/insulin formulation, semi-quantitative in comparison with NaCl, RP-HPLC, samples stored at 5° C.

Q: What does the source list for `NC(CO)(CO)CO` [Tris]?
A: Effect on insulin solubility [1]: No effect; temperature effect (dpH/dT) [2]: −0.028 U/° C.; Effect on rHuPH20 enzymatic activity [3]: No effect

Q: With `[Cl-].[Na+]` [NaCl] as the molecule, how does the “Effect on antimicrobial effectiveness” value ([4]; component concentration (80-100 mM)) read?
A: Neutral

Q: Which “Effect on insulin solubility” value [1, 8] does the source give for `Cl.Cl.NCCCCC(N)C(=O)NC(CCCCN)C(=O)O` (stereo not shown) [Lys-Lys, Lys-Lys dihydrochloride] here?
A: Reduced solubility

Q: What about the “Effect on insulin solubility” value ([1]; stabilizer screening, samples stored at 5° C.) of the same molecule?
A: caused severe precipitation of insulin

Q: And the “temperature effect (dpH/dT)” value [5]?
A: −0.033 U/° C.

Q: And the “Effect on rHuPH20 enzymatic activity” value [3]?
A: Strong stabilizer

Q: What about the “effect on rHuPH20 stability in comparison with NaCl” value ([3]; stabilizer screening, 30° C. about one week, […] m-cresol, 0.2% phenol) of the same molecule?
A: stabilized rHuPH20 more than NaCl

Q: For `CSCC[C@H](N)C(=O)O` [methionine], which “Effect on insulin solubility” value [1, 8] is on record?
A: No effect

Q: What about the “Effect on antimicrobial effectiveness” value ([4]; component concentration (50-100 mM), formulations with 100 U/mL insulin or analog and 5 μg/mL rHuPH20) of the same molecule?
A: Neutral

Q: What about the “ox-1 peak of rHuPH20 compared to formulations without methionine” value [6] of the same molecule?
A: significantly smaller

Q: And the rHuPH20 enzymatic activity ([3]; 1 mM methionine, 30° C. for one month, starting 650 U/mL)?
A: 525 U/mL

Q: And the rHuPH20 enzymatic activity ([3]; 20 mM methionine, 30° C. for one month, starting 650 U/mL)?
A: 522 U/mL

Q: And the “Effect on rHuPH20 enzymatic activity” value [3]?
A: No effect

B1: rHuPH20: secreted soluble recombinant human PH20 expressed in CHO cells; nucleic acid encodes amino acids 36-482 of SEQ ID NO:1 (protein, listed as Homo sapiens)
chain: LNFRAPPVIPNVPFLWAWNAPSEFCLGKFDEPLDMSLFSFIGSPRINATGQGVTIFYVDRLGYYPYIDSITGVTVNGGIPQKISLQDHLDKAKKDITFYMPVDNLGMAVIDWEEWRPTWARNWKPKDVYKNRSIELVQQQNVQLSLTEATEKAKQEFEKAGKDFLVETIKLGKLLRPNHLWGYYLFPDCYNHHYKKPGYNGSCFNVEIKRNDDLSWLWNESTALYPSIYLNTQQSPVAATLYVRNRVREAIRVSKIPDAKSPLPVFAYTRIVFTDQVLKFLSQDELVYTFGETVALGASGIVIWGTLSIMRSMKSCLLLDNYMETILNPYIINVTLAAKMCSQVLCQEQGVCIRKNWNSSDYLHLNPDNFAIQLEKGGKFTVRGKPTLEDLEQFSEKFYCSCYSTLSCKEKADVKDTDAVDVCIADGVCIDAFLKPPMETEEPQIFY
modifications: precursor human PH20
Q: With B1 as the molecule, how does the rHuPH20 enzymatic activity ([3]; 2-8° C., 5 Months, pH 7.0, NaCl 50 mM) read?
A: 494.4796

Q: And the rHuPH20 enzymatic activity ([3]; 2-8° C., 5 Months, pH 7.0, NaCl 80 mM)?
A: 575.3274

Q: And the rHuPH20 enzymatic activity ([3]; 2-8° C., 5 Months, pH 7.0, NaCl 110 mM)?
A: 615.3546

Q: And the rHuPH20 enzymatic activity ([3]; 2-8° C., 5 Months, pH 7.0, NaCl 140 mM)?
A: 582.4274

Q: What about the rHuPH20 enzymatic activity ([3]; 2-8° C., 5 Months, pH 7.2, NaCl 50 mM) of the same molecule?
A: 481.6035

Q: What about the rHuPH20 enzymatic activity ([3]; 2-8° C., 5 Months, pH 7.2, NaCl 80 mM) of the same molecule?
A: 566.2521

Q: What about the rHuPH20 enzymatic activity ([3]; 2-8° C., 5 Months, pH 7.2, NaCl 110 mM) of the same molecule?
A: 593.2027

Q: And the rHuPH20 enzymatic activity ([3]; 2-8° C., 5 Months, pH 7.2, NaCl 140 mM)?
A: 585.9948

Q: What about the rHuPH20 enzymatic activity ([3]; 2-8° C., 5 Months, pH 7.4, NaCl 50 mM) of the same molecule?
A: 526.6628

Q: And the rHuPH20 enzymatic activity ([3]; 2-8° C., 5 Months, pH 7.4, NaCl 80 mM)?
A: 564.7769

Q: What about the rHuPH20 enzymatic activity ([3]; 2-8° C., 5 Months, pH 7.4, NaCl 110 mM) of the same molecule?
A: 618.3856

Q: And the rHuPH20 enzymatic activity ([3]; 2-8° C., 5 Months, pH 7.4, NaCl 140 mM)?
A: 585.9813

Q: What about the rHuPH20 enzymatic activity ([3]; 2-8° C., 5 Months, pH 7.6, NaCl 50 mM) of the same molecule?
A: 508.0571

Q: What about the rHuPH20 enzymatic activity ([3]; 2-8° C., 5 Months, pH 7.6, NaCl 80 mM) of the same molecule?
A: 546.4209

Q: What about the rHuPH20 enzymatic activity ([3]; 2-8° C., 5 Months, pH 7.6, NaCl 110 mM) of the same molecule?
A: 581.6326

Q: And the rHuPH20 enzymatic activity ([3]; 2-8° C., 5 Months, pH 7.6, NaCl 140 mM)?
A: 594.6197

Q: And the rHuPH20 enzymatic activity ([3]; 2-8° C., 9 Months, pH 7.0, NaCl 50 mM)?
A: 436.5115

Q: What about the rHuPH20 enzymatic activity ([3]; 2-8° C., 9 Months, pH 7.0, NaCl 80 mM) of the same molecule?
A: 513.9692

Q: And the rHuPH20 enzymatic activity ([3]; 2-8° C., 9 Months, pH 7.0, NaCl 110 mM)?
A: 551.0218

Q: And the rHuPH20 enzymatic activity ([3]; 2-8° C., 9 Months, pH 7.0, NaCl 140 mM)?
A: 554.6513

Q: And the rHuPH20 enzymatic activity ([3]; 2-8° C., 9 Months, pH 7.2, NaCl 50 mM)?
A: 451.8324

Q: And the rHuPH20 enzymatic activity ([3]; 2-8° C., 9 Months, pH 7.2, NaCl 80 mM)?
A: 518.0740

Q: What about the rHuPH20 enzymatic activity ([3]; 2-8° C., 9 Months, pH 7.2, NaCl 110 mM) of the same molecule?
A: 553.1847

Q: And the rHuPH20 enzymatic activity ([3]; 2-8° C., 9 Months, pH 7.2, NaCl 140 mM)?
A: 536.7846

Q: What about the rHuPH20 enzymatic activity ([3]; 2-8° C., 9 Months, pH 7.4, NaCl 50 mM) of the same molecule?
A: 466.1871

Q: What about the rHuPH20 enzymatic activity ([3]; 2-8° C., 9 Months, pH 7.4, NaCl 80 mM) of the same molecule?
A: 509.9032

Q: And the rHuPH20 enzymatic activity ([3]; 2-8° C., 9 Months, pH 7.4, NaCl 110 mM)?
A: 560.4847

Q: What about the rHuPH20 enzymatic activity ([3]; 2-8° C., 9 Months, pH 7.4, NaCl 140 mM) of the same molecule?
A: 542.4534

Q: What about the rHuPH20 enzymatic activity ([3]; 2-8° C., 9 Months, pH 7.6, NaCl 50 mM) of the same molecule?
A: 464.8964

Q: What about the rHuPH20 enzymatic activity ([3]; 2-8° C., 9 Months, pH 7.6, NaCl 80 mM) of the same molecule?
A: 515.3382

Q: And the rHuPH20 enzymatic activity ([3]; 2-8° C., 9 Months, pH 7.6, NaCl 110 mM)?
A: 531.9202

Q: What about the rHuPH20 enzymatic activity ([3]; 2-8° C., 9 Months, pH 7.6, NaCl 140 mM) of the same molecule?
A: 523.5385

Q: And the “time rHuPH20 stable” value ([3]; 5° C., […] m-cresol, […] phenol, pH 7.0-7.6, 50-140 mM NaCl)?
A: 12 months

Q: And the “reduction of Tm of rHuPH20 by DSC” value [7]?
A: about 2 °C
